As a reminder, the Kd is the concentration at which binding is half-saturated. Low values mean tighter binding, high ones weaker binding.

The target in one series is rS1-D34 (Vibrio vulnificus CMCP6, UniProt A0A3Q0L6Y6). Put plainly: NMR titration.
For the next series, the target named is rS1-D4 (Vibrio vulnificus CMCP6, UniProt A0A3Q0L6Y6 277-347). As to the kind of experiment: EMSA. For orientation: Mobility shift assays separate free from complexed probe on a gel.
The target of another series is rS1-D3 (Vibrio vulnificus CMCP6, UniProt A0A3Q0L6Y6 192-260). As to the kind of experiment: EMSA.
The target in the next series is rS1-D5 (Vibrio vulnificus CMCP6, UniProt A0A3Q0L6Y6 364-434). As to the kind of experiment: EMSA.
For another series, the target named is rS1-D45 (Vibrio vulnificus CMCP6, UniProt A0A3Q0L6Y6). As to the kind of experiment: EMSA.
In the next series the target is rS1 full-length (Vibrio vulnificus CMCP6, UniProt A0A3Q0L6Y6). As to the kind of experiment: EMSA.

B1: Asw-10 (ssRNA)
RNA: ACUCAUGAAU
Turning to B1, the Kd in the series with rS1-D34 was determined as 57 ± 6 µM.

B2: add Asw full-length (112 nt) (structured_RNA)
RNA: GCUUCAUAUAAUCCUAAUGAUAUGGUUUGGGAGUUUCUACCAAGAGCCUUAAACUCUUGAUUAUGAAGUCUGUCGCUUUAUCCGAAAUUUUAUAAAGAGAAGACUCAUGAAU
Turning to B2, the binding result in the series with rS1-D4, with rS1-D3, in the series with rS1-D5 and with rS1-D45 was “no binding” throughout. Besides, the Kd with rS1 full-length amounted to 3 ± 1 µM.

B3: Asw-8 (ssRNA)
RNA: UCAUGAAU
In the series with rS1-D34, B3 yielded a dissociation constant Kd of 197 ± 50 µM.

The record behind these values is article PMC6237739.
